Results on two molecules are retold here after patent publication US20190022242A1 (AbbVie / Abbott, published 2019).

The target of assay [1] is T1, hMMP16ECD(E247A)-Fc (human, UniProt P51512 32-564).
T1 construct: IgK signal peptide upstream (cleaved); also called phMMP16ECD(E247A)-Fc; not shown: human IgG2 Fc protein
The experiment in a line: MSD ELISA, plate coated with hMMP16ECD(E247A)-Fc at 2 ug/mL, antibody 0.5 ug/mL.

Assay [2] concerns the target T2, hMMP16ECD(E247A)-His (human, UniProt P51512 32-564).
T2 construct: IgK signal peptide upstream (cleaved); also called hMMP16-his; hMMP16-His protein
The assay can be described thus: colorimetric ELISA, plate coated with hMMP16-his at 3 ug/mL, antibody 0.5 ug/mL.

T1 sequence (P51512 32-564 E247A): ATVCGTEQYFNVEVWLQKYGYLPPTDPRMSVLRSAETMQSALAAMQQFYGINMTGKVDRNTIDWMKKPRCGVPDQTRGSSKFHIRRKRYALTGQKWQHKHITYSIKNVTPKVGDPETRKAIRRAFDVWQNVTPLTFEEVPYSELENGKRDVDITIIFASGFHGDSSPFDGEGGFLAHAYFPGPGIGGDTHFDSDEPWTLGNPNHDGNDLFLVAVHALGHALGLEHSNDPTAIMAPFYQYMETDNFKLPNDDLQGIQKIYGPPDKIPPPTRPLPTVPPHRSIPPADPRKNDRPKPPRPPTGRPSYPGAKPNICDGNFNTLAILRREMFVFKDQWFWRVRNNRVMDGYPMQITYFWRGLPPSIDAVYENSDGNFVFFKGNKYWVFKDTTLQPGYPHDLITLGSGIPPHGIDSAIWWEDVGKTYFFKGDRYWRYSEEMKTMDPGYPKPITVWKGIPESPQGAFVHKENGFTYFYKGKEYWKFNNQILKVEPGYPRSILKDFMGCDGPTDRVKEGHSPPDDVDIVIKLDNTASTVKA
T2 sequence (P51512 other isoform, or with tags, fused parts or gaps E247A E247A): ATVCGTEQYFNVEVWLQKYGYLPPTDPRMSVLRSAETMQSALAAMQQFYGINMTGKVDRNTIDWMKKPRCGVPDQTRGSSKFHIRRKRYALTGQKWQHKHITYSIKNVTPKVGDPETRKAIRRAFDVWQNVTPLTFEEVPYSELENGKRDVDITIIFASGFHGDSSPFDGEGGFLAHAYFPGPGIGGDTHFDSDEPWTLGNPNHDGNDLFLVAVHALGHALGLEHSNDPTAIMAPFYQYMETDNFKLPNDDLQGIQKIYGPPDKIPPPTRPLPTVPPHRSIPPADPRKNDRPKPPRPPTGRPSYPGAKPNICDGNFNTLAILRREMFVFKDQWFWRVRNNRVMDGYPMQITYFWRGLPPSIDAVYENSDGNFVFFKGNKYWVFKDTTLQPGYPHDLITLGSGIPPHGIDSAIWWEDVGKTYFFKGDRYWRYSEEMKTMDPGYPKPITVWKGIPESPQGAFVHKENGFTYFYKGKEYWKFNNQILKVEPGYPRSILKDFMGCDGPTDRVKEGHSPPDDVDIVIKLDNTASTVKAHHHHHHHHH

B1: SC73.17 (antibody, V domains shown)
VH: EVQLQQSGAELVKPGASVKLSCTASGFNFKDTYMHWVKQRPEQGLEWIGRIDPAIGITEYGPKFQGKATITADTSSNTAYLQLSSLTSEDTAVYYCTRGDFYGNSLDVWGAGTTVTVSS
VL: DIVMTQSPATLSVTPGDRVSLSCRASQIISDYLHWYRQKSHESPRLLIKYASQSISGIPSRFSGSGSGSDFTLSINSVEPEDVGVYYCQNGHSFPLTFGTGTKLELK
notes: Murine hybridoma antibody, first inoculation campaign
Regarding B1, the binding result in assay [1] is “binds”.

B2: SC73.101 (antibody, V domains shown)
VH: QIHLVQSGPELKKPGETVKISCKASGYTFTDYSMHWVKQAPGKGLKWMGWINTETGEPTYPDDFKGRFAFSLETSASTAYLQINNLKNEDTATYFCARGYGYDETGTFAYWGQGTLVTVSA
VL: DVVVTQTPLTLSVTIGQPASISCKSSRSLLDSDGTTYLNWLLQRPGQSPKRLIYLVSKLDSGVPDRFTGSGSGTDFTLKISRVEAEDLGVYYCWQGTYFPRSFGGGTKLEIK
notes: Murine hybridoma antibody, second inoculation campaign; mouse IgG2a was used as its isotype control in IHC; also called anti-MMP16 antibody (clone SC73.101)
B2: the binding result in assay [2] is on record as “binds”.
